Measured values from the supplement of paper PMC7877785.
± gives the uncertainty stated by the source.

Experiment: self-splicing fitness, log relative to wild type (ln ratio); higher = more splicing; Tetrahymena group I intron in knt gene, E. coli kanamycin selection, DiMSum; sequences stand for … in CUCUCU…GGAGGGAAAAGUUAUCAGGCAUGCACCUGGUAGCUAGUCUUUAAACCAAUAGAUUGCAUCGGUUUAAAAGGCAAGACCGUCAAAUUGCGGGAAAGGGGUCAACAGCCGUUCAGUACCAAGUCUCAGGGGAAACUUUGAGAUGGCCUUGCAAAGGGUAUGGUAAUAAGCUGACGGACAUGGUCCUAACCACGCAGCCAAGUCCUAAGUCAACAGAUCUUCUGUUGAUAUGGAUGCAGUUCACAGACUAAAUGUCGGUCGGGGAAGAUGUAUUCUUCUCAUAAGAUAUAGUCGGACCUCUCCUUAAUGGGAGCUAGCGGAUGAAGUGAUGCAACACUGGAGCCGCUGGGAACUAAUUUGUAUGCGAAAGUAUAUUGAUUAGUUUUGGAGUACUCGUGGUCG
Procedure, shortened: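 Pooled colonies went to amplicon sequencing on an Illumina HiSeq 2500 after six replicate transformations. The plates were LB agar with 100 μg/mL carbenicillin, 50 μM IPTG and 0.2% rhamnose, with or without 25 μg/mL kanamycin, incubated overnight at 37°C or 30°C. The E. coli BL21(DE3) library had all eight P1ex-region intron nucleotides randomised, the intron placed in the knt kanamycin-resistance gene on pET-22b(+). DiMSum fitness is the error-weighted combination of replicate fold changes, kanamycin against none, normalised to wild type.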

## GCCAAGCAAUAUUACGCACA
30 °C
  self-splicing fitness (ln): -1.07 ± 0.14
37 °C
  self-splicing fitness (ln): -0.724 ± 0.15

## GAGAAGCAAUAUUACGGCCG
30 °C
  self-splicing fitness (ln): -0.178 ± 0.17
37 °C
  self-splicing fitness (ln): -0.256 ± 0.34

## AUGAAGCAAUAUUACGGUUU
30 °C
  self-splicing fitness (ln): -1.99 ± 0.088
37 °C
  self-splicing fitness (ln): -0.875 ± 0.091

## UCAAAGCAAUAUUACGUAAU
30 °C
  self-splicing fitness (ln): -4.1 ± 0.21
37 °C
  self-splicing fitness (ln): -3.66 ± 0.21

## UUGUAGCAAUAUUACGCAAA
30 °C
  self-splicing fitness (ln): -2.73 ± 0.35
37 °C
  self-splicing fitness (ln): -1.05 ± 0.26

## AGCGAGCAAUAUUACGGGAC
37 °C
  self-splicing fitness (ln): -2.99 ± 0.38

## GCAGAGCAAUAUUACGUGGA
30 °C
  self-splicing fitness (ln): -2.94 ± 0.4
37 °C
  self-splicing fitness (ln): -3.35 ± 0.39

## CAGAAGCAAUAUUACGAGAA
37 °C
  self-splicing fitness (ln): -2.3 ± 0.35

## AAUAAGCAAUAUUACGUGUC
30 °C
  self-splicing fitness (ln): -3 ± 0.14
37 °C
  self-splicing fitness (ln): -0.777 ± 0.14

## UGUGAGCAAUAUUACGUCUA
30 °C
  self-splicing fitness (ln): -1.51 ± 0.16
37 °C
  self-splicing fitness (ln): -1.36 ± 0.15

## CGCUAGCAAUAUUACGGAGC
30 °C
  self-splicing fitness (ln): -2.64 ± 0.2
37 °C
  self-splicing fitness (ln): -1.84 ± 0.24

## UUUCAGCAAUAUUACGACCG
30 °C
  self-splicing fitness (ln): 0.263 ± 0.18
37 °C
  self-splicing fitness (ln): -0.377 ± 0.29

## GACAAGCAAUAUUACGAGAU
30 °C
  self-splicing fitness (ln): -3.73 ± 0.23
37 °C
  self-splicing fitness (ln): -2.78 ± 0.23

## UAAUAGCAAUAUUACGGACU
30 °C
  self-splicing fitness (ln): -1.25 ± 0.15
37 °C
  self-splicing fitness (ln): -1.43 ± 0.18

## CCCAAGCAAUAUUACGUGCG
30 °C
  self-splicing fitness (ln): -4.13 ± 0.21
37 °C
  self-splicing fitness (ln): -2.28 ± 0.18

## GCAUAGCAAUAUUACGCUGC
30 °C
  self-splicing fitness (ln): -3.08 ± 0.44
37 °C
  self-splicing fitness (ln): -2.11 ± 0.37

## GCGCAGCAAUAUUACGUACC
30 °C
  self-splicing fitness (ln): -1.63 ± 0.11
37 °C
  self-splicing fitness (ln): -0.655 ± 0.13

## CCGAAGCAAUAUUACGCUUU
30 °C
  self-splicing fitness (ln): -2.45 ± 0.15
37 °C
  self-splicing fitness (ln): -3.33 ± 0.23

## CUCGAGCAAUAUUACGCGUU
30 °C
  self-splicing fitness (ln): -3.72 ± 0.31
37 °C
  self-splicing fitness (ln): -0.305 ± 0.2

## ACUCAGCAAUAUUACGAACU
30 °C
  self-splicing fitness (ln): -0.166 ± 0.053
37 °C
  self-splicing fitness (ln): 0.599 ± 0.066

## AAACAGCAAUAUUACGAAAC
30 °C
  self-splicing fitness (ln): -2.4 ± 0.24
37 °C
  self-splicing fitness (ln): -1.51 ± 0.23

## CCGCAGCAAUAUUACGGUUG
30 °C
  self-splicing fitness (ln): -2.18 ± 0.066
37 °C
  self-splicing fitness (ln): -1.24 ± 0.085

## GUAGAGCAAUAUUACGUAUA
30 °C
  self-splicing fitness (ln): -1.7 ± 0.28
37 °C
  self-splicing fitness (ln): -0.319 ± 0.25

## CGUUAGCAAUAUUACGUCUU
30 °C
  self-splicing fitness (ln): -4.03 ± 0.26
37 °C
  self-splicing fitness (ln): -1.29 ± 0.099

## CCUCAGCAAUAUUACGCGAC
30 °C
  self-splicing fitness (ln): -3.47 ± 0.28
37 °C
  self-splicing fitness (ln): -2.08 ± 0.22

## CAGAAGCAAUAUUACGGUUA
30 °C
  self-splicing fitness (ln): -2.25 ± 0.13
37 °C
  self-splicing fitness (ln): -1.72 ± 0.12

## CACCAGCAAUAUUACGAUCG
30 °C
  self-splicing fitness (ln): -0.326 ± 0.059
37 °C
  self-splicing fitness (ln): 0.608 ± 0.085

## AGACAGCAAUAUUACGGAUU
30 °C
  self-splicing fitness (ln): -2.55 ± 0.088
37 °C
  self-splicing fitness (ln): -1.45 ± 0.089

## GGAAAGCAAUAUUACGCUAC
30 °C
  self-splicing fitness (ln): -1.91 ± 0.26
37 °C
  self-splicing fitness (ln): -1.86 ± 0.33

## GGUCAGCAAUAUUACGGUGC
30 °C
  self-splicing fitness (ln): -0.28 ± 0.075
37 °C
  self-splicing fitness (ln): 0.535 ± 0.11

## CGAGAGCAAUAUUACGAAGU
37 °C
  self-splicing fitness (ln): -3.51 ± 0.39

## CCCAAGCAAUAUUACGUUUA
30 °C
  self-splicing fitness (ln): -3.62 ± 0.14
37 °C
  self-splicing fitness (ln): -3.04 ± 0.18

## UUACAGCAAUAUUACGCAUU
30 °C
  self-splicing fitness (ln): -2.73 ± 0.17
37 °C
  self-splicing fitness (ln): -1.52 ± 0.14

## AGGGAGCAAUAUUACGUACA
30 °C
  self-splicing fitness (ln): -2.14 ± 0.18
37 °C
  self-splicing fitness (ln): -2.46 ± 0.28

## AGCGAGCAAUAUUACGACAG
37 °C
  self-splicing fitness (ln): -2.08 ± 0.4

## CACUAGCAAUAUUACGUUCU
30 °C
  self-splicing fitness (ln): -3.24 ± 0.17
37 °C
  self-splicing fitness (ln): -1.39 ± 0.14

## UCGCAGCAAUAUUACGCUUA
30 °C
  self-splicing fitness (ln): -1.67 ± 0.12
37 °C
  self-splicing fitness (ln): -0.94 ± 0.09

## AGAAAGCAAUAUUACGGAAA
30 °C
  self-splicing fitness (ln): -1.63 ± 0.14
37 °C
  self-splicing fitness (ln): -1.33 ± 0.15

## UGUUAGCAAUAUUACGUAAA
30 °C
  self-splicing fitness (ln): -0.887 ± 0.14
37 °C
  self-splicing fitness (ln): 0.19 ± 0.21

## CUGUAGCAAUAUUACGACAC
37 °C
  self-splicing fitness (ln): -2.65 ± 0.44

## UGCCAGCAAUAUUACGCGGU
30 °C
  self-splicing fitness (ln): -2.55 ± 0.3
37 °C
  self-splicing fitness (ln): -2.45 ± 0.25

## CCGGAGCAAUAUUACGAACU
30 °C
  self-splicing fitness (ln): -2.29 ± 0.31
37 °C
  self-splicing fitness (ln): -0.657 ± 0.28

## GCUGAGCAAUAUUACGCUAG
30 °C
  self-splicing fitness (ln): -3.28 ± 0.16
37 °C
  self-splicing fitness (ln): -1.27 ± 0.14

## CGCCAGCAAUAUUACGAAGG
30 °C
  self-splicing fitness (ln): -1.36 ± 0.11
37 °C
  self-splicing fitness (ln): -1.9 ± 0.16

## GUCUAGCAAUAUUACGAUGG
30 °C
  self-splicing fitness (ln): -3.48 ± 0.17
37 °C
  self-splicing fitness (ln): -0.823 ± 0.17

## CGAUAGCAAUAUUACGCAAG
30 °C
  self-splicing fitness (ln): -1.97 ± 0.13
37 °C
  self-splicing fitness (ln): -0.614 ± 0.11

## CGCAAGCAAUAUUACGGAAG
30 °C
  self-splicing fitness (ln): -1.03 ± 0.097
37 °C
  self-splicing fitness (ln): -1.44 ± 0.1

## AUCUAGCAAUAUUACGUCGC
30 °C
  self-splicing fitness (ln): -3.06 ± 0.47
37 °C
  self-splicing fitness (ln): -1.86 ± 0.49

## GACCAGCAAUAUUACGUCUU
30 °C
  self-splicing fitness (ln): 0.335 ± 0.05
37 °C
  self-splicing fitness (ln): 0.369 ± 0.068
